From the supplement of paper PMC9112550, “Optimization of the antimicrobial peptide Bac7 by deep mutational scanning” (BMC Biology, 2022)

Test system: Escherichia coli TOP10
Test: shrunken log2 fold change of peptide-encoding DNA abundance (4.5 h post-induction vs induction); higher = less antimicrobial activity (less host growth inhibition)
Conditions: time post-induction: 4.5 h; library: site-saturation at positions 5, 18, 19, 20
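Also: peptides expressed intracellularly from a pBAD plasmid library in pooled LB shake-flask culture, induced with 0.3% L-arabinose, DNA abundance read by NGS, three biological replicates, DESeq2 with apeglm shrinkage.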

Sequence | shrunken log2 fold change
RRIRWRPPRLPRPRPRPHPSPRP | 0.452
RRIRRRPPRLPRPRPRPFTAPRP | 0.128
RRIRWRPPRLPRPRPRPNHMPRP | -0.227
RRIRFRPPRLPRPRPRPKWSPRP | 0.321
RRIRGRPPRLPRPRPRPAWCPRP | 0.822
RRIRFRPPRLPRPRPRPCCYPRP | -0.251
RRIRCRPPRLPRPRPRPKFSPRP | -0.0966
RRIRQRPPRLPRPRPRPFHTPRP | -0.0573
RRIRMRPPRLPRPRPRPCVLPRP | -2.47e-05
RRIRARPPRLPRPRPRPHDEPRP | -0.00385
RRIRTRPPRLPRPRPRPPHCPRP | 0.474
RRIRMRPPRLPRPRPRPDCWPRP | 1.96
RRIRNRPPRLPRPRPRPLPRPRP | 0.102
RRIRTRPPRLPRPRPRPDFWPRP | 0.413
RRIRPRPPRLPRPRPRPGSDPRP | -0.00287
RRIRPRPPRLPRPRPRPMFWPRP | -0.0858
RRIRPRPPRLPRPRPRPNYNPRP | -0.676
RRIRYRPPRLPRPRPRPINAPRP | -0.469
RRIRTRPPRLPRPRPRPEQEPRP | -0.0113
RRIRMRPPRLPRPRPRPPHKPRP | 0.585
RRIRTRPPRLPRPRPRPDRVPRP | -0.0605
RRIRTRPPRLPRPRPRPYWNPRP | -0.343
RRIRDRPPRLPRPRPRPPRKPRP | 0.758
RRIRWRPPRLPRPRPRPNVDPRP | -0.0535
RRIRSRPPRLPRPRPRPIVNPRP | -0.259

Sequence | shrunken log2 fold change
RRIRNRPPRLPRPRPRPFQEPRP | -0.0276
RRIRHRPPRLPRPRPRPFPCPRP | -0.0311
RRIRARPPRLPRPRPRPFTLPRP | -0.543
RRIRLRPPRLPRPRPRPTWEPRP | 0.0313
RRIRWRPPRLPRPRPRPENQPRP | 0.353
RRIRVRPPRLPRPRPRPTFVPRP | 0.0147
RRIRTRPPRLPRPRPRPCFCPRP | -0.259
RRIRPRPPRLPRPRPRPQSCPRP | -0.0478
RRIRKRPPRLPRPRPRPQQHPRP | 0.138
RRIRYRPPRLPRPRPRPVNNPRP | -1.68
RRIRRRPPRLPRPRPRPTGYPRP | 0.246
RRIRCRPPRLPRPRPRPDHIPRP | -0.489
RRIRFRPPRLPRPRPRPWLPPRP | -0.0149
RRIRNRPPRLPRPRPRPQNSPRP | -0.38
RRIRARPPRLPRPRPRPFQRPRP | -0.0439
RRIRTRPPRLPRPRPRPVPRPRP | 0.315
RRIRRRPPRLPRPRPRPICCPRP | 0.213
RRIRRRPPRLPRPRPRPHLEPRP | 0.0779
RRIRDRPPRLPRPRPRPKCVPRP | 0.104
RRIRIRPPRLPRPRPRPHPTPRP | -0.216
RRIRSRPPRLPRPRPRPGYEPRP | -0.157
RRIRGRPPRLPRPRPRPMDQPRP | 0.489
RRIRDRPPRLPRPRPRPWTGPRP | -0.118
RRIRVRPPRLPRPRPRPKGIPRP | -0.115
RRIRPRPPRLPRPRPRPNMEPRP | 0.0784

Sequence | shrunken log2 fold change
RRIRSRPPRLPRPRPRPRAGPRP | 1.46
RRIRKRPPRLPRPRPRPSHIPRP | 0.156
RRIRWRPPRLPRPRPRPDATPRP | 2.57
RRIRDRPPRLPRPRPRPESQPRP | -0.0206
RRIRTRPPRLPRPRPRPPMQPRP | 0.0806
RRIRQRPPRLPRPRPRPFPRPRP | -0.122
RRIRDRPPRLPRPRPRPDSTPRP | -0.00421
RRIRRRPPRLPRPRPRPLWHPRP | 1.15
RRIRNRPPRLPRPRPRPMRIPRP | 0.134
RRIRKRPPRLPRPRPRPRDPPRP | 1.06
RRIRYRPPRLPRPRPRPHNTPRP | -1.28
RRIRMRPPRLPRPRPRPPIVPRP | -0.112
RRIRARPPRLPRPRPRPWAYPRP | -0.0297
RRIRHRPPRLPRPRPRPMPNPRP | -0.0341
RRIRFRPPRLPRPRPRPKIFPRP | -0.197
RRIRERPPRLPRPRPRPHGMPRP | 0.0601
RRIRERPPRLPRPRPRPTYCPRP | 0.0353
RRIRMRPPRLPRPRPRPWKEPRP | 0.0155
RRIRQRPPRLPRPRPRPCMGPRP | -0.124
RRIRCRPPRLPRPRPRPEVVPRP | 0.332
RRIRPRPPRLPRPRPRPGRNPRP | -0.0548
RRIRKRPPRLPRPRPRPETFPRP | -0.00962
RRIRYRPPRLPRPRPRPMYNPRP | -1.23
RRIRVRPPRLPRPRPRPVVSPRP | 0.0132
RRIRLRPPRLPRPRPRPHIWPRP | -0.278

Sequence | shrunken log2 fold change
RRIRTRPPRLPRPRPRPRVCPRP | 0.369
RRIRCRPPRLPRPRPRPKCPPRP | 0.0246
RRIRHRPPRLPRPRPRPKNWPRP | 0.136
RRIRDRPPRLPRPRPRPSGWPRP | 0.558
RRIRFRPPRLPRPRPRPNGIPRP | -0.286
RRIRVRPPRLPRPRPRPWVEPRP | -0.0944
RRIRYRPPRLPRPRPRPPAWPRP | -0.0773
RRIRLRPPRLPRPRPRPPLQPRP | 0.67
RRIRTRPPRLPRPRPRPRQEPRP | 0.0565
RRIRKRPPRLPRPRPRPVAVPRP | 0.138
RRIRVRPPRLPRPRPRPLRQPRP | 0.395
RRIRMRPPRLPRPRPRPCKYPRP | -0.0297
RRIRRRPPRLPRPRPRPTPGPRP | 1.11
RRIRMRPPRLPRPRPRPVSFPRP | 0.000809
RRIRCRPPRLPRPRPRPSHYPRP | -0.349
RRIRHRPPRLPRPRPRPASIPRP | -0.164
RRIRQRPPRLPRPRPRPWQWPRP | -0.133
RRIRLRPPRLPRPRPRPIIWPRP | -0.000825
RRIRYRPPRLPRPRPRPGSYPRP | -0.349
RRIRMRPPRLPRPRPRPIQQPRP | -0.0206
RRIRSRPPRLPRPRPRPAPVPRP | 0.269
RRIRYRPPRLPRPRPRPWHTPRP | -1.52
RRIRTRPPRLPRPRPRPFDAPRP | -0.343
RRIRRRPPRLPRPRPRPHPRPRP | 1.03
RRIRCRPPRLPRPRPRPVPQPRP | 0.0921

Sequence | shrunken log2 fold change
RRIRPRPPRLPRPRPRPNPEPRP | -0.0226
RRIRRRPPRLPRPRPRPWFGPRP | -0.161
RRIRVRPPRLPRPRPRPNQDPRP | -0.116
RRIRTRPPRLPRPRPRPENEPRP | 0.138
RRIRLRPPRLPRPRPRPCDRPRP | -0.114
RRIRHRPPRLPRPRPRPNHVPRP | -0.0341
RRIRKRPPRLPRPRPRPGPRPRP | 1.08
RRIRHRPPRLPRPRPRPNPPPRP | 0.0899
RRIRFRPPRLPRPRPRPWSRPRP | -0.147
RRIRMRPPRLPRPRPRPMRVPRP | 0.035
RRIRLRPPRLPRPRPRPEVPPRP | 0.0129
RRIRGRPPRLPRPRPRPMSAPRP | 0.702
RRIRIRPPRLPRPRPRPQSRPRP | -0.0532
RRIRMRPPRLPRPRPRPVQNPRP | 0.0136
RRIRCRPPRLPRPRPRPVALPRP | 0.0824
RRIRCRPPRLPRPRPRPMAKPRP | -0.0415
RRIRYRPPRLPRPRPRPSSVPRP | -0.425
RRIRVRPPRLPRPRPRPVQTPRP | 0.0297
RRIRHRPPRLPRPRPRPVFNPRP | -0.532
RRIRQRPPRLPRPRPRPVRLPRP | -0.0825
RRIRNRPPRLPRPRPRPPICPRP | 0.0224
RRIRVRPPRLPRPRPRPFMNPRP | -0.836
RRIRRRPPRLPRPRPRPVFLPRP | 0.0173
RRIRARPPRLPRPRPRPSWQPRP | 0.223
RRIRYRPPRLPRPRPRPFKVPRP | -0.123

Sequence | shrunken log2 fold change
RRIRGRPPRLPRPRPRPVVCPRP | 0.812
RRIRNRPPRLPRPRPRPVSDPRP | -0.192
RRIRLRPPRLPRPRPRPPGHPRP | 0.224
RRIRMRPPRLPRPRPRPYMQPRP | -0.338
RRIRTRPPRLPRPRPRPYWKPRP | -0.000823
RRIRQRPPRLPRPRPRPRKWPRP | 0.832
RRIRFRPPRLPRPRPRPYFIPRP | -1.12
RRIRMRPPRLPRPRPRPKCIPRP | -0.113
RRIRLRPPRLPRPRPRPGGIPRP | -0.0154
RRIRKRPPRLPRPRPRPTEDPRP | 1.03
RRIRMRPPRLPRPRPRPEQYPRP | 0.282
RRIRIRPPRLPRPRPRPYYAPRP | -0.949
RRIRHRPPRLPRPRPRPTKWPRP | 0.0132
RRIRYRPPRLPRPRPRPLNVPRP | 0.0468
RRIRGRPPRLPRPRPRPQDIPRP | -0.398
RRIRPRPPRLPRPRPRPNMNPRP | -0.584
RRIRARPPRLPRPRPRPDSFPRP | -0.0867
RRIRTRPPRLPRPRPRPRCAPRP | 0.0538
RRIRNRPPRLPRPRPRPYGKPRP | -0.0718
RRIRYRPPRLPRPRPRPWRHPRP | -0.116
RRIRYRPPRLPRPRPRPRDCPRP | -0.137
RRIRPRPPRLPRPRPRPSVEPRP | -0.00032
RRIRLRPPRLPRPRPRPLLLPRP | -0.00929
RRIRPRPPRLPRPRPRPEKWPRP | 0.0413
RRIRCRPPRLPRPRPRPFENPRP | -0.0274
